Molecular target: human RhoA^F25N (residues 1–181) (human, UniProt P61586 1-181, F25N)
Assay: cell-based or functional assay

Chain of human RhoA^F25N (residues 1–181) (P61586 1-181 F25N): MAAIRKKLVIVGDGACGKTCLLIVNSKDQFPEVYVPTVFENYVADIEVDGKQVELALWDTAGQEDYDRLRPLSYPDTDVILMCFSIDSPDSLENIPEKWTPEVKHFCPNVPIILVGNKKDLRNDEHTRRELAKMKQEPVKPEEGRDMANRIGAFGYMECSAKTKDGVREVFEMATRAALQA

catalytic activity in the nucleotide exchange assay on RhoA (mant-GTP fluorescence): 3.3 fold over the isolated DH-PH tandem
B1: PRG^4R: PRG^672–1081 with D706R, E708R, E710R, D712R (domain or fragment, human, UniProt O15085 672-1081, looked up)
chain: TPKMGRRSIESPSLGFCTDTLLPHLLEDDLGQLSRLRPRPRAQNWQHTVGKDVVAGLTQREIDRQEVINELFVTEASHLRTLRVLDLIFYQRMKKENLMPREELARLFPNLPELIEIHNSWCEAMKKLREEGPIIKEISDLMLARFDGPAREELQQVAAQFCSYQSIALELIKTKQRKESRFQLFMQEAESHPQCRRLQLRDLIISEMQRLTKYPLLLESIIKHTEGGTSEHEKLCRARDQCREILKYVNEAVKQTENRHRLEGYQKRLDATALERASNPLAAEFKSLDLTTRKMIHEGPLTWRISKDKTLDLHVLLLEDLLVLLQKQDEKLLLKCHSKTAVGSSDSKQTFSPVLKLNAVLIRSVATDKRAFFIICTSKLGPPQIYELVALTSSDKNTWMELLEEAVRNA
